{
  "source": "paper PMC2814181",
  "key": {"[1]": {"target": "Neptune, His tag removed by TEV protease (crystallized form)", "assay": "crystal structure"}, "mKate [2]": {"target": "mKate", "assay": "native gel or EMSA"}, "mKate [3]": {"target": "mKate", "assay": "SEC-MALS"}, "[4]": {"target": "Neptune (mKate M41G S61C S158C Y194F)", "assay": "AUC"}, "[5]": {"target": "Neptune (mKate M41G S61C S158C Y194F)", "assay": "native gel or EMSA"}, "[6]": {"target": "Neptune (mKate M41G S61C S158C Y194F)", "assay": "SEC-MALS"}, "dTomato [7]": {"target": "dTomato", "assay": "native gel or EMSA"}, "dTomato [8]": {"target": "dTomato", "assay": "SEC-MALS"}, "dTomato [9]": {"target": "dTomato", "assay": "SDS-PAGE of unboiled samples"}},
  "note": "pKd: −log10 of the molar value.",
  "data": [
    {"substance": "Neptune, His tag removed by TEV protease (crystallized form)", "values": [
      {"measurement": "stoichiometry N", "setting": "[1]", "result": 4}
    ]},
    {"substance": "mKate", "values": [
      {"measurement": "stoichiometry N", "setting": "mKate [2]", "result": 2},
      {"measurement": "stoichiometry N", "setting": "mKate [3]", "result": 2}
    ]},
    {"substance": "Neptune (mKate M41G S61C S158C Y194F)", "values": [
      {"measurement": "pKd", "setting": "[4]", "result": 6.30},
      {"measurement": "stoichiometry N", "setting": "[5]", "result": 2},
      {"measurement": "stoichiometry N", "setting": "[6]", "result": 2}
    ]},
    {"substance": "dTomato", "values": [
      {"measurement": "stoichiometry N", "setting": "dTomato [7]", "result": 2},
      {"measurement": "stoichiometry N", "setting": "dTomato [8]", "result": 2},
      {"measurement": "stoichiometry N", "setting": "dTomato [9]", "result": 2}
    ]}
  ]
}
